Data taken from CN114478780A (AGRICULTURAL UNIV IN CHINA, dated 2022).

B1: HN3 (antibody, V domains shown)
VH: QVQLVQSGGGLVQPGGSLRLSCAASYFDFDSYEMSWVRQAPGKGLEWIGSIYHSGSTYYNPSLKSRVTISRDNSKNTLYLQMNTLRAEDTATYYCARVNMDRFDYWGQGTLVTVSS

Key:
细胞表面的GPC3蛋白 = 细胞表面的GPC3蛋白 (UniProt P51654); test: cell-based or functional assay
GPC3-his蛋白 = GPC3-his蛋白 (UniProt P51654 25-559); test: SPR (Biacore), GPC3-his amine-coupled on CM5, antibody as analyte, 1:1 Langmuir fit

| Molecule | 杀伤活性 IC50, Hep3BLG cells, 72 h, luciferase viability (细胞表面的GPC3蛋白) [µg/mL] | Kd (GPC3-his蛋白) [nM] |
| --- | --- | --- |
| HN3-PE24 | 0.109 |  |
| B1 |  | 1.95 |
